Test results published in patent US20240343811A1 (SHANDONG SIMCERE BIOPHARMACUTICAL, published 2024).

T1: human CD16b (NA2), full length, on FlpinCHO cells (human, UniProt O75015 17-200)
T1 construct: also called FlpinCHO-human CD16b (NA2)
T1 chain: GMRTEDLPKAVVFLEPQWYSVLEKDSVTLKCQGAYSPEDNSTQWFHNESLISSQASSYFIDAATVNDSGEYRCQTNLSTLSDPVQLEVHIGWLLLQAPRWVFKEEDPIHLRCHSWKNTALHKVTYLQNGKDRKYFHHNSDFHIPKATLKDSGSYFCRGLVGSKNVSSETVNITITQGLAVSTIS

T2: human CD16b (NA1), full length, on FlpinCHO cells (human, UniProt O75015 17-200)
T2 construct: also called FlpinCHO-human CD16b (NA1)
T2 chain: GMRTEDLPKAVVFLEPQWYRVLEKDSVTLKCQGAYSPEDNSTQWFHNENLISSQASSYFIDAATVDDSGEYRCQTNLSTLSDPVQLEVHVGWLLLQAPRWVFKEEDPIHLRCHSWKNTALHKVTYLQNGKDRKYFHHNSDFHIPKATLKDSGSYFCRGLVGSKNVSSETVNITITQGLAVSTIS


Tests used:
[1] = target: T1, human CD16b (NA2), full length, on …; assay: FACS on FlpinCHO cells
In short: (§1)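 Trypsin-detached FlpinCHO cells expressing full-length CD16b were blocked in PBS+2% BSA and incubated on ice for 1 hour with antibody at varying concentrations. Binding read by flow cytometry as MFI; EC50 from curve fitting.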

[2] = target: T2, human CD16b (NA1), full length, on …; assay: FACS on FlpinCHO cells
In short: as §1

[3] = target: T3, cynomolgus monkey CD16, full length, on FlpinCHO cells (cynomolgus monkey, UniProt Q8SPW2 17-254); assay: FACS on FlpinCHO cells
T3 construct: also called FlpinCHO-cyno CD16; Flipin CHO-cyno CD16
T3 sequence (Q8SPW2 other isoform, or with tags, fused parts or gaps limits assumed): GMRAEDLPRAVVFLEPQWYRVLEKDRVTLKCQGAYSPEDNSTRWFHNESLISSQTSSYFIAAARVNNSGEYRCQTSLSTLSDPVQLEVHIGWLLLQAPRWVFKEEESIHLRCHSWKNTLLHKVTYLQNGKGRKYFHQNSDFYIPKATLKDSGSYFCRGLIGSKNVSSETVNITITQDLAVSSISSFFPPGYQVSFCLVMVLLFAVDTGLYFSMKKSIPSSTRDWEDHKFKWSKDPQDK
Protocol: The required cells were scale-up cultured in a T-75 cell culture flask to the logarithmic growth phase. The medium was aspirated, and the cells were washed twice with a PBS buffer and then digested with trypsin. After the digestion was terminated, the cells were washed twice with the PBS buffer. The cells were counted, and then the cell pellet was resuspended with a [PBS+2% (w/w) BSA] blocking solution to 2×10⁶ cells/ml, and added to a 96-well FACS reaction plate at 50 μl/well. […] 50 μl/well of the antibody to be detected was added at different concentrations, and incubated on ice for 1 hour. […] The mixture was centrifuged and washed 5 times with PBS, and FACS (FACS Canto II, purchased from BD Company) was used for detection and result analysis. Data analysis was performed by software (CellQuest) to obtain the mean fluorescence intensity (MFI) of the cells. Then, software (GraphPad Prism8) was used for analysis, data fitting and EC50 value calculation.
Flipin CHO-cyno CD16 cells were subjected to FACS detection and data analysis according to the method of Example 3.1.

[4] = target: T4, human CD16a (158V), full length, on cells (human, UniProt P08637 17-254); assay: cell-based or functional assay
[5] = target: T5, CD16 on primary human NK cells (human, UniProt P08637 17-254); assay: FACS on human NK cells, biotinylated antibody
T5 construct: whole, on cells; also called resting NK cells

[6] = target: human CD16a (158F), full length, on FlpinCHO cells (human, UniProt P08637 17-254); assay: FACS on FlpinCHO cells
[7] = target: T4, human CD16a (158V), full length, on …; assay: FACS on FlpinCHO cells
[8] = target: T5, CD16 on primary human NK cells; assay: FACS on human NK cells, biotinylated antibody, +10 mg/mL human immunoglobulin
Human CD16a (158F)-his = target: T6, Human CD16a (158F)-his (human); assay: SPR (Biacore), antibody captured on Protein A
T6 construct: entry holds ECD, AVI tag, linker and His tag
In short: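 Protein A–captured antibody was probed with CD16-his ECD in HBS-EP+ at 25 °C: five 2-fold dilutions from 200 nM, 240 s at 30 μL/min, dissociation up to 600 s. Glycine pH 1.5 regenerated the chip. Apparent KD came from a double-referenced 1:1 Langmuir fit.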

Row | Maximum mean fluorescence intensity [1] | EC50 [2] | Maximum mean fluorescence intensity [2] | EC50 [3] | Maximum mean fluorescence intensity [3] | EC50, activation activity for Jurkat cell [4] | Maximum fluorescence value [4] | EC50 [5] | Maximum mean fluorescence intensity [5] | EC50 [6] | Maximum mean fluorescence intensity [6] | EC50 [7] | Maximum mean fluorescence intensity [7] | EC50 [8] | Maximum mean fluorescence intensity [8] | Kd (Human CD16a (158F)-his) | koff (Human CD16a (158F)-his) | kon (Human CD16a (158F)-his) | binding result [1] | Binder
1 | 74000 | 0.95 nM | 48200 | 0.55 nM | 18300 | 0.01 nM | 122000 | 0.65 nM | 70400 | 0.35 nM | 9340 | 0.41 nM | 8130 | 2.48 nM | 72100 | 53.9 nM | 0.0208 s⁻¹ | 385000 M⁻¹ s⁻¹ | – | VHH12-05 humanized VHH-Fc antibody (Fc fusion) EVQLVESGGGLVQPGGSLRLSCAASGITFSSYAMGWYRQAPGKQRELVAAINRFGLTNYVDSVKGRFTISRVNAKNSLYLQMNSLRAEDTAVYYCNTGGVYSHPDYYTGTYWGQGTMVTVSSEPKSSDKTHTCPPCPAPEEFGGPSVFLFPPKPKDTLMISRTPEVTCVVVAVSHEDPEVKFNWYVDGVEVHNAKTKPREEQYNSTYRVVSVLTVLHQDWLNGKEYKCKVSNKALPAPIEKTISKAKGQPREPQVYTLPPSREEMTKNQVSLTCLVKGFYPSDIAVEWESNGQPENNYKTTPPVLDSDGSFFLYSKLTVDKSRWQQGNVFSCSVMHEALHNHYTQKSLSLSPGK
2 | 69800 | 1.94 nM | 40600 | 0.83 nM | 18600 | 0.02 nM | 158000 | 0.53 nM | 39300 | 0.6 nM | 8770 | 0.64 nM | 7550 | 1.69 nM | 38100 | 27.6 nM | 0.0164 s⁻¹ | 592000 M⁻¹ s⁻¹ | – | VHH12-06 humanized VHH-Fc antibody (Fc fusion) EVQLVESGGGLVQPGGSLRLSCAASGITFSSYAMGWYRQAPGKQRELVAAINRFGLTNYVDSVKGRFTISRDNAKNSVYLQMNSLRAEDTAVYYCNTGGVYSHPDYYTGTYWGQGTMVTVSSEPKSSDKTHTCPPCPAPEEFGGPSVFLFPPKPKDTLMISRTPEVTCVVVAVSHEDPEVKFNWYVDGVEVHNAKTKPREEQYNSTYRVVSVLTVLHQDWLNGKEYKCKVSNKALPAPIEKTISKAKGQPREPQVYTLPPSREEMTKNQVSLTCLVKGFYPSDIAVEWESNGQPENNYKTTPPVLDSDGSFFLYSKLTVDKSRWQQGNVFSCSVMHEALHNHYTQKSLSLSPGK

Second part, the binder before the results:

Row | Binder | Maximum mean fluorescence intensity [1] | EC50 [2] | Maximum mean fluorescence intensity [2] | EC50 [3] | Maximum mean fluorescence intensity [3] | EC50, activation activity for Jurkat cell [4] | Maximum fluorescence value [4] | EC50 [5] | Maximum mean fluorescence intensity [5] | EC50 [6] | Maximum mean fluorescence intensity [6] | EC50 [7] | Maximum mean fluorescence intensity [7] | EC50 [8] | Maximum mean fluorescence intensity [8] | Kd (Human CD16a (158F)-his) | koff (Human CD16a (158F)-his) | kon (Human CD16a (158F)-his) | binding result [1]
3 | VHH06-04 humanized VHH-Fc antibody (Fc fusion) EVQLVESGGGVVQPGGSLRLSCAASGSTWTTYAVRWYRQAPGKQREWVAFISVDGSTNYPDSVKGRFTISRDNSKNTVYLQMNSLRAEDTADYICRVGGQYWGQGTMVTVSSEPKSSDKTHTCPPCPAPEEFGGPSVFLFPPKPKDTLMISRTPEVTCVVVAVSHEDPEVKFNWYVDGVEVHNAKTKPREEQYNSTYRVVSVLTVLHQDWLNGKEYKCKVSNKALPAPIEKTISKAKGQPREPQVYTLPPSREEMTKNQVSLTCLVKGFYPSDIAVEWESNGQPENNYKTTPPVLDSDGSFFLYSKLTVDKSRWQQGNVFSCSVMHEALHNHYTQKSLSLSPGK | 437 | 0.32 nM | 53000 | – | – | 0.02 nM | 159000 | 1.34 nM | 61800 | 0.39 nM | 9570 | 0.4 nM | 8890 | 3.99 nM | 71400 | 9.8 nM | 0.000467 s⁻¹ | 47700 M⁻¹ s⁻¹ | no binding (tested: 100 nM)
4 | VHH06-05 humanized VHH-Fc antibody (Fc fusion) EVQLVESGGGVVQPGGSLRLSCAASGSTWTTYAVRWYRQAPGKQREWVAFISVDGSTNYADSVKGRFTISRDNAKNTVYLQMNSLRAEDTADYICRVGGQYWGQGTMVTVSSEPKSSDKTHTCPPCPAPEEFGGPSVFLFPPKPKDTLMISRTPEVTCVVVAVSHEDPEVKFNWYVDGVEVHNAKTKPREEQYNSTYRVVSVLTVLHQDWLNGKEYKCKVSNKALPAPIEKTISKAKGQPREPQVYTLPPSREEMTKNQVSLTCLVKGFYPSDIAVEWESNGQPENNYKTTPPVLDSDGSFFLYSKLTVDKSRWQQGNVFSCSVMHEALHNHYTQKSLSLSPGK | 296 | 0.18 nM | 55200 | – | – | 0.03 nM | 176000 | 1.33 nM | 53900 | 0.27 nM | 8890 | 0.23 nM | 8840 | 3.66 nM | 64900 | 26.9 nM | 0.00109 s⁻¹ | 40300 M⁻¹ s⁻¹ | no binding (tested: 100 nM)
